Test results as given in the DeepSol protein solubility set.

Assay: soluble on expression in E. coli; label from the status in PepcDB or PDB records

| Sequence | soluble on expression in E. coli |
| --- | --- |
| SAANVAHGLQQNVLYVDSNGGLTASRLLQLLQAKTQDEEEQAEALRRIQVVHAFDIFQMLDVLQELRGTVAQQVTGSSGTVKVVVVDSVTAVVSPLLGGQQREGLALMMQLARELKTLARDLGMAVVVTNHITRDRDSGRLKPALGRSWSFVPSTRILLDTIEGAGASGGRRMACLAKSSRQPTGFQEMVDIGTWGTSEQSATLQGDQT | soluble |
| MGSDKIHHHHHHMKHLSLEALRSFSAVIELGSMTLAGERMGRSQPAISLQLKKLEQQLGVELLTRQGSGFALTADGDVLFDYAQRMLALNDQAWAQFEPQQVSGKVRLGITSEFASSLLPKVLGQFAQVYPQVTLQVTSALSKDLLSGLGQQFDIILALREQTNKSDVLIQREELVWVGLPGLLEQPGWPMVVAPEGCIYRRRAEQSLQRAHQPYRITYTNTDFSGLTAALNSGLGITVLAKSTVPKDIPILESFSDNKPLPNPGSVNVIMRLAGGASSAASQLADYLKARI | not soluble |
| MSLKQADELRFNEDGLIPAIVQDAASKEVLTLAYMNKESYEKTLETKETWFYSRSRQALWHKGETSGNTQAVKGIRYDCDQDALLVLVEPSGPACHTGSYSCFTKEQTEEQAADRFGIMNELERVIAERQAEMPEGAYTTYLFREGVDKILKKVGEEASEVIIAAKNRDHEELKWEAADLLYHLLVLLREQSLPLDDVLDVLKKRHSEIEEEGHHHHHH | soluble |
| MPVVTAVGRRRGFAMPWVSTARSGAVMLANYSAGVCGRVSSPGLNVRKMCLKANTPGAVTWLDTPKRFLSTQTASRCMAVNSSDVVTGRIDPQVLHTPLNTDVDGYAHAMHSSINSGPLEYLPATFSVFPALGDVGDLGGGVGAATYALDRLSNMRSGACVGGGESPWRSLMT | not soluble |
| MGSDKIHHHHHHMEFSAKQIAAFIQGEIIGDENATVHTFAKIEEGMPGAISFLSNPKYTPYIYETQSSIVLVNKDFVPEHEIRATLIKVDNAYESLAKLLNLYEMSKPKKQGIDSLAYIAPSAKIGENVYIGAFAYIGENAVIGDNTQIYPHTFVGDGVKIGNGCLLYSNVNVYHDCRIGNECILHSGAVIGADGFGFAPTPNGYDKIPQIGIVILEDKVDIGANTCVDRATMGATIIHSGAKIDNLVQIAHNDEIGSHTVMAAQVGIAGSAKIGEWCMFGGQVGIAGHITIGDRVNLGAQSGIPSSIKADSVLIGTPPMEPKAYFKAAVVTKNLPDMQKEIRNLRKEVEELKQLLNK | not soluble |
| MVRYFGFLANRVCGEKLPQVYRALGMDKPEPVAKVCYAQMVKQFLSRDPFECVLCGGRMVYRRAIAGLNVEGLKKNARDISLLRYMPA | not soluble |
| MSLYIPCLMCTQHPDSTVKITAGEEVDEAVVAFLAYGCDEVMVDYEGKATPYSQPRDVASKALALGLPLGERFFITPRVPNPRLEDFERSMLSLEAAVLANSYSQRAAGVQAVKWVVLPMTEDVETMAFVYKALDMKARDLAELNAVKRDSSIELIPLVEDAMRQIKIESFIKALFRTAAQSGRILEHMRIFLGISDSAVRHGHMASALAMVKALGQISEINRDGEFKISPIVGMGSPPFRGGLNNPHLAVPEAAQYAGYKTATIQSAVRYDVSYAEYQKVREAILSVYTPRRLHVEEAWITKASELYREAIRPYIGKIAELANAIPSTRDRVSWREYGRVIEGVEWRVPRAIVYTATWYFAGVPPTLLDARFIAWAYKNDLLDDVLRALPATVEEWKFESRFYSRERAEKTLGGEIVKDIDNAFDILGIKPEPDRTYITLLNSADTQPHAIALGRIRGFLGEGHHHHHH | not soluble |
| GSHMLEFSEWYSDILEKAEIYDVRYPIKGCGVYLPYGFKIRRYTFEIIRNLLDESGHDEALFPMLIPEDLLAKEAEHIKGFEDEVYWVTHGGKTQLDVKLALRPTSETPIYYMMKLWVKVHTDLPIKIYQIVNTFRYETKHTRPLIRLREIMTFKEAHTAHSTKEEAENQVKEAISIYKKFFDTLGIPYLISKRPEWDKFPGAEYTMAFDTIFPDGRTMQIATVHNLGQNFSKTFEIIFETPTGDKDYAYQTCYGISDRVIASIIAIHGDEKGLILPPIVAPIQVVIVPLIFKGKEDIVMEKAKEIYEKLKGKFRVHIDDRDIRPGRKFNDWEIKGVPLRIEVGPKDIENKKITLFRRDTMEKFQVDETQLMEVVEKTLNNIMENIKNRAWEKFENFITILEDINPDEIKNILSEKRGVILVPFKEEIYNEELEEKVEATILGETEYKGNKYIAIAKTY | soluble |
| MGSDKIHHHHHHMPKRIVKLEAGYNCRDLGGYVSQDGRTVKWGRLYRSGSLSHLTKADQAELARRKIVVDCDLRSRHEQDNFPDKLWPGSKLVDAHFYSESGDEEEEAEAAWEKYSSKLPKLSYLAMVYQQNLVVPRTGLVMREIFKEMLDLEDDEALLYHCSMGKDRTGMVSVIVLMALGLEDREILRDYLLSREYSRDWDEADENDRLGKQIAKMNQTQVSQTAFYGITETIRQMWGGFDRYFASLGFDQGDLDRLRDKFLE | not soluble |
| MRASRKRLHTTNLRWNMSQKHWSKVQLLHEVVKNPNIIIKGKHSYYSDCWDAGFEASVVRYLHGDEISQRWDPLWEIDQLVIGDYVCIGAEVVILMGGNHTHRADWFCLYPFMDVIEQAYVGKGNTEIGDGAWLGMRAMIMPGVKIGEGAIVAANSVVTKDVAPYSIVAGSPAQLVKYRFDAKVIDELLALKVYDWPPEKFTALKSYLCALDLAALKQAVIQYDAEPHNPLS | not soluble |
| MAGDPMRKSKLTFIATFLILLFLSMPYKAHAASQTPITRADAEQRALTMINLNWTYSKSKNGVLPSAYSGSITAPSQFRGIENVVATGIPYCWGGFDGLNSSSYGESWTNFTDAVNKGAFVGNVKSSSYGHITGTAGLDCSGFVQATFNIKDYKLSTSTIFNQYFTKIDIKDIKHMDILNLPGNHVVIFDKWGTRNGVNGAYTYEATPDTTYGGIQGTKQYFMSMNTVSQYIPGRYVNIKEVAYVQVINASSLNIRTGPSTSYPIIGTISQNQIAEVTGYSSDGTWYKIKINGIEGYASSTYLTYVNNLEHHHHHH | not soluble |
| MGPHSMRYFETAVSRPGLEEPRYISVGYVDNKEFVRFDSDAENPRYEPRAPWMEQEGPEYWERETQKAKGQEQWFRVSLRNLLGYYNQSAGGSHTLQQMSGCDLGSDWRLLRGYLQFAYEGRDYIALNEDLKTWTAADMAAQITRRKWEQSGAAEHYKAYLEGECVEWLHRYLKNGNATLLRTDSPKAHVTHHPRSKGEVTLRCWALGFYPADITLTWQLNGEELTQDMELVETRPAGDGTFQKWASVVVPLGKEQNYTCRVYHEGLPEPLTLRWEPPPST | soluble |
| MSLSQIAVRTFHDIRAALLARRELALLDVREEDPFAQAHPLFAANLPLSRLELEIHARVPRRDTPITVYDDGEGLAPVAAQRLHDLGYSDVALLDGGLSGWRNAGGELFRDVNVPSKAFGELVEAERHTPSLAAEEVQALLDARAEAVILDARRFDEYQTMSIPGGISVPGAELVLRVAELAPDPRTRVIVNCAGRTRSIIGTQSLLNAGIPNPVAALRNGTIGWTLAGQQLEHGQTRRFGAISQDTRKAAAQRARAVADRAGVERLDLAGLAQWQDEHDRTTYLLDVRTPEEYEAGHLPGSRSTPGGQLVQETDHVASVRGARLVLVDDDGVRANMSASWLAQMGWQVAVLDGLSEADFSERGAWSAPLPRQPRADTIDPTTLADWLGEPGTRVLDFTASANYAKRHIPGAAWVLRSQLKQALERLGTAERYVLTCGSSLLARFAVAEVQALSGKPVFLLDGGTSAWVAAGLPTEDGESLLASPRIDRYRRPYEGTDNPREAMQGYLDWEFGLVEQLGRDGTHGFFVIEGGSHHHHHH | soluble |
| MELGLAGKTALVAASSQGLGKAIARALVLEGTNVMITSRNEEKLHEVAEELNSLHKGRVAYTRTDVTNADDIRQLVAKTVETFGTIDLLVNNAGGPPAGTFETVSDEDWQYAFELNLLSYIRLIREALPYLKKKGGKIVNIASSSIKEPIPGLILSNTFRTGIVGLTKTLAVELAPDGILINTVAPGRIATERVAFLDKVNAEKLGITKEEMEARMKSAIPLGRYGTPEEFANVVVFLLSEANSYVTGQALIVDGGMVKAI | soluble |
| MVPVRLPLFGPSRAEGPMGPLPLRRKALGILYYLALEGPTRRERLADLLWGHRVALQNLRSELTHLRSFFGKEAFRGPVLTLPPGVELDRTPGSGEAMEGLEDLSPAFADWVYGWRTRLAPGEEGTPFPKRLEAVRPPALVILIGPPGSGQESLAQALAQKLGLPLRHGLGEGAGVFYLSEPFPPKEVGLALKPLPGRVLVVARSSFGEDPSFLLALRTRFPAEVTVVEQVPCLSWREAVGGPLRHLPFAEAARFYLRSGGRVEVLRELLAMGNPEALPQRVRAMVALEARHLPWEARKALEVLALHPGPFPEKLAWILGYGEALDELEHRGWLLYCEGRYRFSEPQFRPYLTAGFGEGERCRLHARLAEAWEALGDPVAAAYHRFYGEKGEALKAAQLGSWRQALAAHPGPNVPLPRSRVRKGKKRALETEEIHLVSFQGEVAEAVLELEEPLLLHLQGEVYQELPLGLGANLEAFPFRLRSLKGEGAVYFLPRANPGYYPWGAVLPQENLDHEFLLRPGQYLLELGTPGVVSLRLQAWETAPGNQEILVPLEMTESL | soluble |
| MGSDKIHHHHHHMPNIPLRVNSLATEHPNNAQNSDKMPTFDAIFSHLSAIASHNSHQIIALLPSSDANWPAALIAERLTQAGSKQHLQKQHLHLHLFAQHQASWLKALAESETLASPAKEQIKAICDARVSGSHRLKLVNARLIIDIHLGDPLTQLKDLVSPSLASQAIQGWLANTQATDEALIWQMARLSQDNAEFLLLENNDVNLDKTSNNANTNLLTQLIIKAGFTCYRLNLSLKDDQLVTLAEKPSLASLEIAMVERRALRRQQLDKFAFNPLTQGREGETAIIGGGVASANLALSLAERGKKVSFFCMDKAPGEQASGNKQGAIYPLLTPEHGSLSHYFLLGYLFSRQRIKQLLESGHEIPHDFCGVLQTGHDERSHKRLTKIINAQPWAESIARPVDALQATALAGVTIEHQGIYYPLAGWVSPQ | not soluble |
| MHLKNNQTLANGATVTIYPTTTEPTNYVVYLHGGGMIYGTKSDLPEELKELFTSNGYTVLALDYLLAPNTKIDHILRTLTETFQLLNEEIIQNQSFGLCGRSAGGYLMLQLTKQLQTLNLTPQFLVNFYGYTDLEFIKEPRKLLKQAISAKEIAAIDQTKPVWDDPFLSRYLLYHYSIQQALLPHFYGLPENGDWSAYALSDETLKTFPPCFSTASSSDEEVPFRYSKKIGRTIPESTFKAVYYLEHDFLKQTKDPSVITLFEQLDSWLKER | soluble |
| MQKEMEQDVKRFGQAAWATAIPRLEKLKLMLAQETLQLMRAKELCLNHKRAEIQGKMEDLPEQEKNINVVDELAIQFYEIQLELYEVKFEILKNKEILLTTQLDSLERLIKDEI | soluble |
| MGSDKIHHHHHHMLTEQPNWLMQRAQLTPERIALIYEDQTVTFAELFAASKRMAEQLAAHSVRKGDTAAILLQNRAEMVYAVHACFLLGVKAVLLNTKLSTHERLFQLEDSGSGFLLTDSSFEKKEYEHIVQTIDVDELMKEAAEEIEIEAYMQMDATATLMYTSGTTGKPKGVQQTFGNHYFSAVSSALNLGITEQDRWLIALPLFHISGLSALFKSVIYGMTVVLHQRFSVSDVLHSINRHEVTMISAVQTMLASLLEETNRCPESIRCILLGGGPAPLPLLEECREKGFPVFQSYGMTETCSQIVTLSPEFSMEKLGSAGKPLFSCEIKIERDGQVCEPYEHGEIMVKGPNVMKSYFNRESANEASFQNGWLKTGDLGYLDNEGFLYVLDRRSDLIISGGENIYPAEVESVLLSHPAVAEAGVSGAEDKKWGKVPHAYLVLHKPVSAGELTDYCKERLAKYKIPAKFFVLDRLPRNASNKLLRNQLKDARKGELL | not soluble |
